± gives the uncertainty stated by the source.
assay: amyloid nucleation score (Sup35N fusion, yeast selection) (log enrichment); library NNK2; higher = more nucleation; inactive = no reads after selection
Summary of the method: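 Sup35N fusions to peptides of 20 random codons were expressed in psi-negative yeast, induced 24 hours with 100 μM copper sulfate, and grown 7 days at 30°C on medium lacking adenine and uracil. Input and output plasmid inserts were sequenced by Illumina. The nucleation score is the DiMSum log enrichment of output over input reads, centred on the mode score of non-aggregating sequences. Sequences with under 100 input reads were excluded.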

Row | Substance | amyloid nucleation score
1 | TLDNIRFKLQTAGTAIMWRR | 0.311 ± 0.24
2 | TYPHVLTP | -0.022 ± 0.37
3 | HWSAS | 1.35 ± 0.47
4 | GGKTYNSTVVDVCDHAFCDY | -0.924 ± 1.1
5 | YNGLMNISIATMC | -1.17 ± 0.74
6 | NLLYKMTMWTKFGRLSSCCK | 0.001 ± 0.42
7 | FFGICDVYSDMNFPIYTAY | inactive
8 | LASSKEACVHTVMAIVSVGA | 2.08 ± 0.12
9 | RMCMAIKERSY | 0.508 ± 0.38
10 | MLVLSSFNCRLFKINRLR | -0.268 ± 0.45
11 | RCWAAHYVDTWACNSLAVII | 1.19 ± 0.68
12 | IFEAVVRVG | inactive
13 | CHVFTSSSTRSLWTSDIIPS | 0.218 ± 0.48
14 | IPRFRLYANCRMFNRV | 0.056 ± 0.39
15 | RSRSYHADWACTVVCLCYS | 4.24 ± 0.066
16 | TLATTGTHCVYYKNSWCKFR | -0.498 ± 0.63
17 | TRPCMFFRIELISLSTVLAR | 0.552 ± 0.46
18 | KCPRVPNLVS | 0.407 ± 0.43
19 | LVMTHAMFVSLWCGRTVFLL | 0.014 ± 0.49
20 | LLPSGIIH | -0.815 ± 0.5
21 | RIFTFLSVSHPN | 4.53 ± 0.053
22 | YLSRWYLKILQVSWRSVHSS | -0.712 ± 0.36
23 | SSLFMTIWDSFSPI | -0.186 ± 0.45
24 | RYQFSATPGVVRWKFEEYSD | -0.047 ± 0.46
25 | HYYLSTVSVYIGMPIRWFSG | 0.371 ± 0.38

Row | Substance | amyloid nucleation score
26 | RICVKLKVDSGVKMHQTTAG | 7.952 ± 0.034
27 | SDNTLCLTGDSAYN | 0.307 ± 0.2
28 | FTILTP | -0.375 ± 0.79
29 | IICMEVIFSLANCADWRTAV | 3.53 ± 0.12
30 | RNSMGTFSRWYPIMY | -0.54 ± 0.48
31 | GRTCVRRGQAE | 0.909 ± 0.47
32 | RNTYRRGGLPFVAYNRTSVG | 0.125 ± 0.28
33 | LCLRDFSFDGLVGSR | 0.119 ± 0.65
34 | LRIRYFSFDIIVLEGYIRSA | -0.205 ± 0.29
35 | TLFNMLDYSVVWYLFTSIHR | -1.44 ± 1.1
36 | VVPCWSVNKDSRSDRSD | -0.1 ± 1
37 | FTGYRAISASLGTYCLKSCG | -0.245 ± 0.76
38 | YPVTYQLCILICTGYADKWR | -1.26 ± 0.64
39 | LMSGVLGRWLKKSSKFQESL | -0.653 ± 1.1
40 | SCNQCYFFQEVKRSVLVIKT | 3.59 ± 0.066
41 | CLGGNHYHPSSTVTEQRYLT | 0.859 ± 0.48
42 | EKFESERISFRAMGQGEVLR | 4.61 ± 0.079
43 | ERFPDCCLFNLDVFVSVLNI | 5.022 ± 0.027
44 | ICFYLLHDRIHHSWD | 5.3 ± 0.096
45 | LGFHWIRNGGGLVTVNLVCV | 0.747 ± 0.27
46 | IGCGARLEGKMMACMSRDRQ | 0.461 ± 0.64
47 | EDVYKRTQRDWDCLILYQRY | -0.765 ± 0.76
48 | RTFVVNQVEWDVYIWRSGSV | 0.004 ± 0.56
49 | FCDFY | -1.2 ± 0.41
50 | STTQEF | 0.086 ± 0.32

Row | Substance | amyloid nucleation score
51 | VSNRLRLSFKRVPHHAGYRP | 2.76 ± 0.2
52 | HGKCVFGLPVLLQWKLGDQT | 0.607 ± 0.57
53 | ITSHVDAAVEFPNVSFSHGV | 1.37 ± 0.47
54 | VITGYCA | 2.48 ± 0.094
55 | FLVNVFM | 8.001 ± 0.025
56 | CVYPGEMLWRI | -0.609 ± 0.76
57 | QLVLKVRLWVDGLYVLEWGW | -0.042 ± 0.49
58 | TTMWYTS | -0.837 ± 1.1
59 | LPLKNRVVDTCRKRFVGEVG | -0.19 ± 1
60 | AGMPCKFIRARSSPYFRALC | 0.495 ± 0.62
61 | PVMDNLFSKAFVG | -0.741 ± 0.5
62 | FISHIYLNESQQKSSALNTL | -1.32 ± 0.53
63 | GQWRKGAYMVC | 0.477 ± 0.34
64 | GDGFLSFSERSKKYSQSS | -0.855 ± 0.55
65 | IVISWIPDNPNQMDALCRRY | 0.912 ± 0.34
66 | PSSVKWTRSPGMRTTNGEVC | 1.36 ± 0.23
67 | LFGGRGKRVRLKVLLTQRF | -0.37 ± 0.32
68 | MFEVWFLESRHFINWGICSS | inactive
69 | HHFNLPMKKGRFVSLGFSLV | -0.623 ± 1
70 | SSNSANVILASYEDYRRVNP | -0.526 ± 0.79
71 | SKQTITFRSVQEDSWRRFGH | 5.49 ± 0.076
72 | NFGLEELTGKIGGRTC | 1.04 ± 0.23
73 | FFWNAGCSELFGEGHYNSLL | inactive
74 | ISGFRPSAYWSVLNWNSSL | -1.78 ± 1.1
75 | PVYSSFYCCYVWHRNFRKYT | -0.975 ± 0.29

Row | Substance | amyloid nucleation score
76 | SIFRWKREKAVGLYPLHQVA | -0.094 ± 0.76
77 | SYASWYCLYCKNSGQGFLFE | 7.948 ± 0.026
78 | TDNNNVYYVYSLQVIPTVSD | -0.496 ± 0.32
79 | MGGGNCLVRFKRYEFPFDIP | -1.61 ± 0.54
80 | VRLTMQYGHVYPGCSLLPYV | 4.75 ± 0.049
81 | SFQCSWIG | 3.04 ± 0.088
82 | QWSFPAILRLDTNTSRYYFQ | -0.776 ± 1.1
83 | YGFKGTSLR | -0.506 ± 0.28
84 | PRTISSSRLMWRYVSYLVIV | inactive
85 | QQYSADLLRGYPCMSYVPVG | -0.091 ± 0.26
86 | GDYWGAGWRRA | 0.184 ± 0.49
87 | TSFLPELRGLYGRAIVARNY | -1.39 ± 1.1
88 | SHEFSRMLEEFWDHNNVRSH | -1.1 ± 0.48
89 | AMGNKREKVL | 0.601 ± 0.44
90 | SRNSLLRS | -0.924 ± 0.45
91 | YGTKQVGKNRFFEHSYYYWP | inactive
92 | YVVYMVFGR | 6.323 ± 0.055
93 | VLCCPSKISTALKCWVGEAC | 0.233 ± 0.62
94 | DGGREPIVFYSQNYVCNKFV | 6.775 ± 0.048
95 | KGKDS | -0.037 ± 0.39
96 | SPMNDLY | 0.041 ± 0.49
97 | NYIESFMHSQGCNPFQDSFM | 3 ± 0.12
98 | PFYTYSKYKCTKFTDNYYAQ | -1.02 ± 1.1
99 | RPSNKT | 0.761 ± 0.56
100 | FVYESIFLHRMSYNPIRWWV | 0.112 ± 1.1

Row | Substance | amyloid nucleation score
101 | LPIRWVVVGEGSGVGRVWTW | 0.227 ± 0.3
102 | LSCNMFDPVGQWCCGKKVGA | 1.07 ± 0.42
103 | LYPYAQFCVSVRRLHRLVSR | 0.306 ± 0.28
104 | VFSSFWVYKLYEFEASSNVR | -0.371 ± 0.45
105 | LSLYFFDL | 1.06 ± 0.36
106 | ILWWNKAMGCFNELVLGRRV | -0.016 ± 0.79
107 | STSWGSRSVDCC | -0.609 ± 0.25
108 | HYSRI | 0.647 ± 0.58
109 | SSKLLYM | -0.059 ± 0.55
110 | VGDWVQQVVFTRRSTSSRRV | inactive
111 | MTCSTWMQLVRYTSVICILT | inactive
112 | ISAETPMIAFCLVPLNPRSV | 1.06 ± 0.68
113 | FAMRTSKKVSRTTAGGTDPF | -0.696 ± 0.54
114 | INQKDRRGNPYY | -0.042 ± 0.79
115 | SYSVQAALVCVFGGCNHVGS | 9.383 ± 0.048
116 | AMSPGTVKRFGLLVALFQY | 0.867 ± 0.74
117 | SYGNEFMM | 0.363 ± 0.57
118 | YFSSQLDLRRIMLLLSRYV | 0.721 ± 0.54
119 | AYTFSNSVNVCCVGVLEVIV | 5.8 ± 0.077
120 | HQDRERTRVPSIILFSLFTY | 1.71 ± 0.17
121 | SVLELYRTSIFYLRLVSNLL | 3.52 ± 0.079
122 | NFSYRSFNRLVRGRD | inactive
123 | RECIYFRFYSRWATLSFLNR | -0.368 ± 1
124 | VVNDIATLLRVMNEYYAESA | -0.531 ± 0.79
125 | RIDILGVTRWN | 0.633 ± 0.3

Row | Substance | amyloid nucleation score
126 | DYANELVA | 0.099 ± 0.25
127 | SVDGMLSVSVLVNDVVKTPL | 0.309 ± 0.22
128 | TGCVDVAEMVNP | 0.138 ± 0.48
129 | SVVYSFTRMPVGIFLMISEL | -0.552 ± 0.35
130 | AHKKRDMWLRKPGL | 1.68 ± 0.53
131 | VQVCKMICRFISLWGLLA | 0.006 ± 0.44
132 | GGWNLDYVMRVYTRRLCNAS | 1.17 ± 0.41
133 | VFDSPLHQWFYIKLIMLSTL | inactive
134 | LVDNLR | -0.441 ± 1.1
135 | QNRKERYVYIFRAEWFPWCG | -1.13 ± 0.76
136 | TVYEMGASMLVKILHWKVLN | -0.801 ± 0.38
137 | TVYSGILKSY | -0.574 ± 1
138 | CCICKSRHLFDWKNDEWTSI | -0.45 ± 0.63
139 | LRSLGAGAIYMPALQCRSRS | 0.255 ± 0.5
140 | DFFFCFRYTDLEQE | -0.195 ± 0.61
141 | NGDLIRDRECRANMRFIMRV | -1.21 ± 0.45
142 | AEHYECPLCERIETAGCKLV | 0.509 ± 0.24
143 | WHCVRVIQRSWCVKEGSKGC | 0.118 ± 0.45
144 | MSGICPDQSSLYIEDTSIWL | 2.96 ± 0.068
145 | VREVDILYYC | 0.418 ± 0.48
146 | VVRMRENKRNIL | inactive
147 | DNDRHNAVALRSSVIVLLGK | inactive
148 | VSTSYVTTIVF | -0.237 ± 0.41
149 | AYHRWSTVLWILTYWTLRMC | 0.053 ± 1.1
150 | QYVVNLFYPLYMEKKCWSSI | 6.288 ± 0.039

Row | Substance | amyloid nucleation score
151 | MSQGSKIRVTWARSGGTRRL | 3.08 ± 0.15
152 | CPIDYGTSVNHDNKVSILYL | 0.534 ± 0.51
153 | LVVSIIRGYLFPCGDPIFLW | inactive
154 | HEQLW | -0.243 ± 0.48
155 | LSCWAYHVSWGWWHYIFAW | 1.11 ± 0.38
156 | ERDSGPEYIVCIQVVIYLGM | 3.06 ± 0.052
157 | GNRFNRRLWSQATILEF | -0.166 ± 0.76
158 | VYKMIVSRVHC | -1.17 ± 1
159 | WYCRVSMRNLYIFGSIRSAY | 5.34 ± 0.086
160 | YKEVWY | -0.284 ± 0.45
161 | VDITRWIDVMVYF | -0.19 ± 0.62
162 | GFVVMMFNLANRYSMQGDVG | 8.234 ± 0.052
163 | TAKDTPCAVRIIFEFLDGLV | 7.279 ± 0.056
164 | CLVFTRVWYCAIYRTSFKET | -0.474 ± 0.38
165 | RNWWGLSVYNSIYWCVMSRD | 4.835 ± 0.043
166 | KGRGCRFLMLYYRVYMFRGS | 0.471 ± 0.5
167 | VHIMNSLVGSIVLGSSRRLS | 5.77 ± 0.062
168 | SRSFKVRNL | inactive
169 | VRFYVCLFLRNEMKVGRMTW | 3.86 ± 0.064
170 | SYSLIVE | 0.919 ± 0.48
171 | YMLWGWFFLNGFYTVIGIVP | inactive
172 | KKERPNMSWGDHY | -0.78 ± 1

Source: the supplement of paper PMC12042874
